Reference: publication PMC2701625

Biological target: purified human hsp90 (human) (UniProt P07900)
Test: cross-linking

purified human hsp90 (from UniProt P07900 1-732) (natural protein)
stoichiometry N: 2
